In the supplement of paper PMC6379048 one finds EC50 data, which are given here for three sequences.

Common to all, as to assay: EC50 of free RNA motif oligo competing protein binding to immobilised probe
In one series the target is T1, TFIP11 (UniProt Q9UBB9).
T1 sequence: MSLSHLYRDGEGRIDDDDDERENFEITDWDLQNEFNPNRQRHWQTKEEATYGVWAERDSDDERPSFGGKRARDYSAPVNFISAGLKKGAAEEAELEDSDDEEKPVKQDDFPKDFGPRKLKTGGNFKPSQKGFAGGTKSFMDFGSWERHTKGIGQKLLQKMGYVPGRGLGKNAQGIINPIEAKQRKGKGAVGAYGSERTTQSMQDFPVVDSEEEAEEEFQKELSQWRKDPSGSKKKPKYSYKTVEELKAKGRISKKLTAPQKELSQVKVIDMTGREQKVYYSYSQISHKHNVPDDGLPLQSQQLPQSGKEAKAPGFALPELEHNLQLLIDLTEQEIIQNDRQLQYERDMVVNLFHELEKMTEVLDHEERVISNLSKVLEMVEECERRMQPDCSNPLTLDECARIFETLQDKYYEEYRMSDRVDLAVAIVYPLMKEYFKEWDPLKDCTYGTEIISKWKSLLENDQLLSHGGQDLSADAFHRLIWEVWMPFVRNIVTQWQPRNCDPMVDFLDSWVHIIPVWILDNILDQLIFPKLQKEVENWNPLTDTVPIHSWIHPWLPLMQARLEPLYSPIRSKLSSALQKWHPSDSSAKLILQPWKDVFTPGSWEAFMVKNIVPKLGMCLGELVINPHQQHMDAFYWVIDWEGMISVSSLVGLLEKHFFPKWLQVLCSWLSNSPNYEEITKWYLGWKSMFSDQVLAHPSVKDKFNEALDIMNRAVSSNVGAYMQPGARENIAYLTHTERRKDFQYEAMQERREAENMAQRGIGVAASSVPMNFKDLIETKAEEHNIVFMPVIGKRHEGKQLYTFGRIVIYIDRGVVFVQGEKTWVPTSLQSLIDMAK
A digest of the protocol:
(§1)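 Over three biological replicates and two independent experiments, proteins captured on NHS-Sepharose beads carrying 5′-amino-C6 RNA oligos were quantified by label-free LC-MS/MS and normalised to the control. Capture lasted 30 min at 4°C and followed a 1 h pre-incubation at 4°C of HEK293-FT lysate (2.5 mg protein/well) with the same oligos in free form (0 nM to 30 μM). EC50 was taken from a four-parameter log-logistic fit, and Kd was EC50 corrected by a protein-dependent depletion factor.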

Another series addresses T2, AQR (UniProt O60306).
T2 sequence: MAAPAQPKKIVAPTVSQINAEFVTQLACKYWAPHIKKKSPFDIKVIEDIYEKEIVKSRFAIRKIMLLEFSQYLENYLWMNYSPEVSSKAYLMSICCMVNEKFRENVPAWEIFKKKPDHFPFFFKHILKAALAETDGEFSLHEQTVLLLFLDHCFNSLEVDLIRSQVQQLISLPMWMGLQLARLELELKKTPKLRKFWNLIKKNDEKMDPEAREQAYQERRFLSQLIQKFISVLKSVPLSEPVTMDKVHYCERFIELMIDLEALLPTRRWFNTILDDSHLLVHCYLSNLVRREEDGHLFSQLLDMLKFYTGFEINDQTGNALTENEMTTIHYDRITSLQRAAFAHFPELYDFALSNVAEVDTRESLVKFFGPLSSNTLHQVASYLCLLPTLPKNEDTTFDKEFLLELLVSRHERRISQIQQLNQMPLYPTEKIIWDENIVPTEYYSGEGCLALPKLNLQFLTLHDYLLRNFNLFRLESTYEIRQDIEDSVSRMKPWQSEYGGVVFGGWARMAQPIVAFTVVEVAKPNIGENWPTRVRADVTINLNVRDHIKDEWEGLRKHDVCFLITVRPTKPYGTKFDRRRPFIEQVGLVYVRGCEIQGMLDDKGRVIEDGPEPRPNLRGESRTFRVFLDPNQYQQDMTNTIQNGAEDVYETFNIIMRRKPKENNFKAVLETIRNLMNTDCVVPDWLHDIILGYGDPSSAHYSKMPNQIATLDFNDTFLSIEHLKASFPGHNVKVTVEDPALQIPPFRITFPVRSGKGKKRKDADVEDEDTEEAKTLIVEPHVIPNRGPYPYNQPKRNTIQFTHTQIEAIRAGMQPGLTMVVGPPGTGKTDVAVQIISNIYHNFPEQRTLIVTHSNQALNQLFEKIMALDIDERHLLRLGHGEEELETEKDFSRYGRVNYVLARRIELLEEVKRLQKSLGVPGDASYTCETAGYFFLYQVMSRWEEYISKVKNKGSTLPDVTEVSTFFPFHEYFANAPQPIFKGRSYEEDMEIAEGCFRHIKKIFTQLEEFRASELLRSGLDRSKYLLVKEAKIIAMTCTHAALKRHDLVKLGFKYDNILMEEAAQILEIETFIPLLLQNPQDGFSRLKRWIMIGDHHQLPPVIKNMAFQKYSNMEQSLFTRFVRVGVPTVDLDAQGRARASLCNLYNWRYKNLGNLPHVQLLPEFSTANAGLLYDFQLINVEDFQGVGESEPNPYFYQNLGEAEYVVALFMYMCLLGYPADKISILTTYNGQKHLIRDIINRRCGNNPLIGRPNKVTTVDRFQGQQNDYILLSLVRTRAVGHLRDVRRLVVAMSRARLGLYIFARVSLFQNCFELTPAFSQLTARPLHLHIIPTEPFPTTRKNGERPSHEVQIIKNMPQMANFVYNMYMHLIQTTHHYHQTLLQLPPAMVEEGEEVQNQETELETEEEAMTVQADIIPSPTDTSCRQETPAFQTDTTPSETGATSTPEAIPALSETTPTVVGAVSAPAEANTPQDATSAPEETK
The gist of the method: as §1

For another series, the target named is PABPC1 (UniProt P11940). The gist of the method: as §1
Sequence of PABPC1 (P11940 whole entry): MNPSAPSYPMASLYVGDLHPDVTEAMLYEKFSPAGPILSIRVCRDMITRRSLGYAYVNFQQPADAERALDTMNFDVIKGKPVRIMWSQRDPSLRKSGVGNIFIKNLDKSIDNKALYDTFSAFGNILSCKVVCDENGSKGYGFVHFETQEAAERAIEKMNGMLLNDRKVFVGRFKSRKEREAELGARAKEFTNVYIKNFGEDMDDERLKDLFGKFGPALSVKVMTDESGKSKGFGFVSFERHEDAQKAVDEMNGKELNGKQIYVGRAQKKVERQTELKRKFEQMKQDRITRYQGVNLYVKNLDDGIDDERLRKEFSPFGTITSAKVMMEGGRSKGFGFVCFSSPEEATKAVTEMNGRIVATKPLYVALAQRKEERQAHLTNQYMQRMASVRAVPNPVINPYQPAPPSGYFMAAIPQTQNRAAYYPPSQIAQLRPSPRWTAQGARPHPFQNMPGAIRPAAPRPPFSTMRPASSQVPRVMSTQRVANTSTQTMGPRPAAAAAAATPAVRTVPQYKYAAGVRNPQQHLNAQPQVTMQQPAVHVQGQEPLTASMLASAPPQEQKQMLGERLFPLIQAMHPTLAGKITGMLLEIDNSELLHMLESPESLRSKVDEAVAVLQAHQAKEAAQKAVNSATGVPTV

On to AAUAAA, for which the values for the EC50 with TFIP11, with AQR and with PABPC1 were 2350 nM, 877 nM and 10100 nM, respectively.

In the series with PABPC1, CUGUCCU registered an EC50 of 199 nM.

For UAUUUAU, the EC50 with TFIP11 turned out to be 2390 nM; with AQR, 706 nM.
